T1: HBs抗原(Prosec Tany Technology Ltd. HBS 875), biotinylated (Hepatitis B virus (adr型), UniProt P03140 175-400, biotinylated with EZ-Link NHS-PEG4-biotin (sites not given))
T1 construct: also called ビオチン化HBs抗原; adr型HBs抗原(PROSPEC社製)
T1 chain: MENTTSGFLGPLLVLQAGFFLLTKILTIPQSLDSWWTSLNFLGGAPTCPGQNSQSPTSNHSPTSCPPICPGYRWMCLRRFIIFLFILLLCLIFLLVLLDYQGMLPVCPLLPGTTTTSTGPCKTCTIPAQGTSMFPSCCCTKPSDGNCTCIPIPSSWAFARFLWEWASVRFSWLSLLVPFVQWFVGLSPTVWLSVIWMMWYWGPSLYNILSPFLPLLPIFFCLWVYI

B1: クローンHB351 (mouse monoclonal HBs antigen-binding antibody) (antibody, V domains shown)
VH: EIQLQQSGAELVKPGASVKLSCTASGFNIKDTYMYWVKQRPEQGLEWIGRIDPANGDTKYDPNFQGKATITADPSSNTAYLQLTSLTSEDTAVYYCARDDYDGAMDYWGRGTSVTVSS
VL: QIVLTQSPAIMSASPGERVTMTCSASSTVNYMYWYQQKPGSSPRLLNFDTSNLASGVPVRFSGSGSGTSYSLTISRMEAEDAATYYCQRWSTYPPITFGSGTKLEIK
notes: Mouse hybridoma antibody; The 91/92 assignment follows the order HB351, HB1170, HB1215 = (1), (2), (3); also called HB351; クローン351
B2: ヒト化HB1170 (antibody, V domains shown)
VH: QVQLVQSGSELKKPGASVKVSCKASGYTFTDFSMHWVRQAPGQGLKWMGWIDTETGEPTNADDFKGRFVFSLDTSVSTAYLQISSLKAEDTAVYYCARKDYELGTWFVYWGQGTTVTVSS
VL: DIQMTQSPSSLSASVGDRVTITCRASQDISNFLNWYQQKPGKAPKLLIYYTSRLHSGVPSRFSGSGSGTDYTLTISSLQPEDFATYYCQQGKTLPRTFGGGTKVEIK
notes: also called humanized HB1170; ヒト化したモノクローナル抗体HB1170
B3: クローンHB1215 (mouse monoclonal HBs antigen-binding antibody) (antibody, V domains shown)
VH: QVQLKQSGPGLVQPSQSLSLTCTVSGFSLATYGVQWVRQSPGKGLEWLGVIWRGGNTDYNAAFMSRLSITKDNSKSQVFFKMNSLQGDDTAIYYCAKATYFDVWGAGTTVTVSS
VL: QAVVTQESALTTSPGETVTLTCRSSTGAVTTSNFANWVQEKPDHLFTGLIGDTNNRAPGVPARFSGSLIGDKAALTITGAQTEDEAIYFCALWYNNWVFGGGTKLTVL
notes: Mouse hybridoma antibody; also called HB1215; HB1215クローン
B4: クローンHB1170 (mouse monoclonal HBs antigen-binding antibody) (antibody, V domains shown)
VH: QIQLVQSGPELKKPGETVKISCKASGYTFTDFSMHWVKQAPGKGLKWMGWIDTETGEPTNADDFKGRFVFSLETSASAAYLQIHNLKNDDTATYFCARKDYELGTWFVYWGQGTLVTVST
VL: DIQMTQTTSSLSASLGDRVTISCRASQDISNFLNWYQQKPDGTVKLLIYYTSRLHSGVPSRFSGSGSGTDYSLTISNLEQEDFATYFCQQGKTLPRTFGGGTILEIK
notes: Mouse hybridoma antibody; also called HB1170; HB1170クローン
B5: ヒト化HB351 (antibody, V domains shown)
VH: EVQLVQSGAEVKKPGATVKISCKVSGFNIKDTYMYWVQQAPGKGLEWIGRIDPANGDTKYDPNFQGRVTITADTSTDTAYMELSSLRSEDTAVYYCARDDYDGAMDYWGQGTLVTVSS
VL: EIVLTQSPATLSLSPGERATLSCSASSTVNYMYWYQQKPGQAPRLLNFDTSNLASGIPARFSGSGSGTDFTLTISSLEPEDFAVYYCQRWSTYPPITFGQGTKLEIK
notes: also called humanized HB351; ヒト化したモノクローナル抗体HB351

Legend:
[1] = molecular target: T1, HBs抗原(Prosec Tany Technology Ltd. HBS …; test: BLI (Octet RED96e), biotinylated HBs antigen on streptavidin sensor, antibody in solution
[2] = molecular target: T1, HBs抗原(Prosec Tany Technology Ltd. HBS …; test: BLI (Octet), as in Example 3: biotinylated HBs antigen on streptavidin sensor

| Binder | Kd [1] [pM] | Kd [2] [pM] |
| --- | --- | --- |
| B1 | ~300 |  |
| B2 |  | ~3000 |
| B3 | ~300 |  |
| B4 | ~3000 |  |
| B5 |  | ~300 |
